Data: article doi:10.1101/2021.08.16.456586
Like-named read-outs stand apart in the source and are kept apart here.

Columns and labels:
[1] = target: Empty HBV Cp183 capsid (Hepatitis B Virus (strain not stated)) (UniProt P03147); assay: negative stain TEM, 2D class averages
[2] = target: Empty HBV Cp183 capsid (Hepatitis B Virus (strain not stated)) (UniProt P03147); assay: charge detection mass spectrometry
[3] = target: Empty HBV Cp183 capsid (Hepatitis B Virus (strain not stated)) (UniProt P03147); assay: charge detection mass spectrometry; remark: listed apart in the source
[4] = target: Empty HBV Cp183 capsid (Hepatitis B Virus (strain not stated)) (UniProt P03147); assay: charge detection mass spectrometry; remark: listed apart in the source

Sequence of UniProt P03147 (P03147 whole entry): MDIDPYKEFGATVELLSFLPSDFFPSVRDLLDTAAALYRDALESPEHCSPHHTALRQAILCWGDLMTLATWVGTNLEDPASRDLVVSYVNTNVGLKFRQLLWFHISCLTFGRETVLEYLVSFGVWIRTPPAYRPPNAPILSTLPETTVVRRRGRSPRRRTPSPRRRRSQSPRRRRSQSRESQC

In the case of “Importin β (from UniProt Q14974 1-876) (natural protein)”, the percent of empty capsids with externally bound Impβ [1] is reported as 90%, the percent of particles with visible, externally bound Impβ [1] is reported as 48% and the stoichiometry N (Impβ per capsid) [2] is reported as 38. The stoichiometry N (Impβ per capsid) [3] was 38 and the stoichiometry N (Impβ per capsid) [4] was 64.
